Data as given in publication PMC3217864.

Biological target: CD91 (human (endogenous in PBMCs)) (UniProt Q07954)
Chain of UniProt Q07954 (Q07954 20-4544): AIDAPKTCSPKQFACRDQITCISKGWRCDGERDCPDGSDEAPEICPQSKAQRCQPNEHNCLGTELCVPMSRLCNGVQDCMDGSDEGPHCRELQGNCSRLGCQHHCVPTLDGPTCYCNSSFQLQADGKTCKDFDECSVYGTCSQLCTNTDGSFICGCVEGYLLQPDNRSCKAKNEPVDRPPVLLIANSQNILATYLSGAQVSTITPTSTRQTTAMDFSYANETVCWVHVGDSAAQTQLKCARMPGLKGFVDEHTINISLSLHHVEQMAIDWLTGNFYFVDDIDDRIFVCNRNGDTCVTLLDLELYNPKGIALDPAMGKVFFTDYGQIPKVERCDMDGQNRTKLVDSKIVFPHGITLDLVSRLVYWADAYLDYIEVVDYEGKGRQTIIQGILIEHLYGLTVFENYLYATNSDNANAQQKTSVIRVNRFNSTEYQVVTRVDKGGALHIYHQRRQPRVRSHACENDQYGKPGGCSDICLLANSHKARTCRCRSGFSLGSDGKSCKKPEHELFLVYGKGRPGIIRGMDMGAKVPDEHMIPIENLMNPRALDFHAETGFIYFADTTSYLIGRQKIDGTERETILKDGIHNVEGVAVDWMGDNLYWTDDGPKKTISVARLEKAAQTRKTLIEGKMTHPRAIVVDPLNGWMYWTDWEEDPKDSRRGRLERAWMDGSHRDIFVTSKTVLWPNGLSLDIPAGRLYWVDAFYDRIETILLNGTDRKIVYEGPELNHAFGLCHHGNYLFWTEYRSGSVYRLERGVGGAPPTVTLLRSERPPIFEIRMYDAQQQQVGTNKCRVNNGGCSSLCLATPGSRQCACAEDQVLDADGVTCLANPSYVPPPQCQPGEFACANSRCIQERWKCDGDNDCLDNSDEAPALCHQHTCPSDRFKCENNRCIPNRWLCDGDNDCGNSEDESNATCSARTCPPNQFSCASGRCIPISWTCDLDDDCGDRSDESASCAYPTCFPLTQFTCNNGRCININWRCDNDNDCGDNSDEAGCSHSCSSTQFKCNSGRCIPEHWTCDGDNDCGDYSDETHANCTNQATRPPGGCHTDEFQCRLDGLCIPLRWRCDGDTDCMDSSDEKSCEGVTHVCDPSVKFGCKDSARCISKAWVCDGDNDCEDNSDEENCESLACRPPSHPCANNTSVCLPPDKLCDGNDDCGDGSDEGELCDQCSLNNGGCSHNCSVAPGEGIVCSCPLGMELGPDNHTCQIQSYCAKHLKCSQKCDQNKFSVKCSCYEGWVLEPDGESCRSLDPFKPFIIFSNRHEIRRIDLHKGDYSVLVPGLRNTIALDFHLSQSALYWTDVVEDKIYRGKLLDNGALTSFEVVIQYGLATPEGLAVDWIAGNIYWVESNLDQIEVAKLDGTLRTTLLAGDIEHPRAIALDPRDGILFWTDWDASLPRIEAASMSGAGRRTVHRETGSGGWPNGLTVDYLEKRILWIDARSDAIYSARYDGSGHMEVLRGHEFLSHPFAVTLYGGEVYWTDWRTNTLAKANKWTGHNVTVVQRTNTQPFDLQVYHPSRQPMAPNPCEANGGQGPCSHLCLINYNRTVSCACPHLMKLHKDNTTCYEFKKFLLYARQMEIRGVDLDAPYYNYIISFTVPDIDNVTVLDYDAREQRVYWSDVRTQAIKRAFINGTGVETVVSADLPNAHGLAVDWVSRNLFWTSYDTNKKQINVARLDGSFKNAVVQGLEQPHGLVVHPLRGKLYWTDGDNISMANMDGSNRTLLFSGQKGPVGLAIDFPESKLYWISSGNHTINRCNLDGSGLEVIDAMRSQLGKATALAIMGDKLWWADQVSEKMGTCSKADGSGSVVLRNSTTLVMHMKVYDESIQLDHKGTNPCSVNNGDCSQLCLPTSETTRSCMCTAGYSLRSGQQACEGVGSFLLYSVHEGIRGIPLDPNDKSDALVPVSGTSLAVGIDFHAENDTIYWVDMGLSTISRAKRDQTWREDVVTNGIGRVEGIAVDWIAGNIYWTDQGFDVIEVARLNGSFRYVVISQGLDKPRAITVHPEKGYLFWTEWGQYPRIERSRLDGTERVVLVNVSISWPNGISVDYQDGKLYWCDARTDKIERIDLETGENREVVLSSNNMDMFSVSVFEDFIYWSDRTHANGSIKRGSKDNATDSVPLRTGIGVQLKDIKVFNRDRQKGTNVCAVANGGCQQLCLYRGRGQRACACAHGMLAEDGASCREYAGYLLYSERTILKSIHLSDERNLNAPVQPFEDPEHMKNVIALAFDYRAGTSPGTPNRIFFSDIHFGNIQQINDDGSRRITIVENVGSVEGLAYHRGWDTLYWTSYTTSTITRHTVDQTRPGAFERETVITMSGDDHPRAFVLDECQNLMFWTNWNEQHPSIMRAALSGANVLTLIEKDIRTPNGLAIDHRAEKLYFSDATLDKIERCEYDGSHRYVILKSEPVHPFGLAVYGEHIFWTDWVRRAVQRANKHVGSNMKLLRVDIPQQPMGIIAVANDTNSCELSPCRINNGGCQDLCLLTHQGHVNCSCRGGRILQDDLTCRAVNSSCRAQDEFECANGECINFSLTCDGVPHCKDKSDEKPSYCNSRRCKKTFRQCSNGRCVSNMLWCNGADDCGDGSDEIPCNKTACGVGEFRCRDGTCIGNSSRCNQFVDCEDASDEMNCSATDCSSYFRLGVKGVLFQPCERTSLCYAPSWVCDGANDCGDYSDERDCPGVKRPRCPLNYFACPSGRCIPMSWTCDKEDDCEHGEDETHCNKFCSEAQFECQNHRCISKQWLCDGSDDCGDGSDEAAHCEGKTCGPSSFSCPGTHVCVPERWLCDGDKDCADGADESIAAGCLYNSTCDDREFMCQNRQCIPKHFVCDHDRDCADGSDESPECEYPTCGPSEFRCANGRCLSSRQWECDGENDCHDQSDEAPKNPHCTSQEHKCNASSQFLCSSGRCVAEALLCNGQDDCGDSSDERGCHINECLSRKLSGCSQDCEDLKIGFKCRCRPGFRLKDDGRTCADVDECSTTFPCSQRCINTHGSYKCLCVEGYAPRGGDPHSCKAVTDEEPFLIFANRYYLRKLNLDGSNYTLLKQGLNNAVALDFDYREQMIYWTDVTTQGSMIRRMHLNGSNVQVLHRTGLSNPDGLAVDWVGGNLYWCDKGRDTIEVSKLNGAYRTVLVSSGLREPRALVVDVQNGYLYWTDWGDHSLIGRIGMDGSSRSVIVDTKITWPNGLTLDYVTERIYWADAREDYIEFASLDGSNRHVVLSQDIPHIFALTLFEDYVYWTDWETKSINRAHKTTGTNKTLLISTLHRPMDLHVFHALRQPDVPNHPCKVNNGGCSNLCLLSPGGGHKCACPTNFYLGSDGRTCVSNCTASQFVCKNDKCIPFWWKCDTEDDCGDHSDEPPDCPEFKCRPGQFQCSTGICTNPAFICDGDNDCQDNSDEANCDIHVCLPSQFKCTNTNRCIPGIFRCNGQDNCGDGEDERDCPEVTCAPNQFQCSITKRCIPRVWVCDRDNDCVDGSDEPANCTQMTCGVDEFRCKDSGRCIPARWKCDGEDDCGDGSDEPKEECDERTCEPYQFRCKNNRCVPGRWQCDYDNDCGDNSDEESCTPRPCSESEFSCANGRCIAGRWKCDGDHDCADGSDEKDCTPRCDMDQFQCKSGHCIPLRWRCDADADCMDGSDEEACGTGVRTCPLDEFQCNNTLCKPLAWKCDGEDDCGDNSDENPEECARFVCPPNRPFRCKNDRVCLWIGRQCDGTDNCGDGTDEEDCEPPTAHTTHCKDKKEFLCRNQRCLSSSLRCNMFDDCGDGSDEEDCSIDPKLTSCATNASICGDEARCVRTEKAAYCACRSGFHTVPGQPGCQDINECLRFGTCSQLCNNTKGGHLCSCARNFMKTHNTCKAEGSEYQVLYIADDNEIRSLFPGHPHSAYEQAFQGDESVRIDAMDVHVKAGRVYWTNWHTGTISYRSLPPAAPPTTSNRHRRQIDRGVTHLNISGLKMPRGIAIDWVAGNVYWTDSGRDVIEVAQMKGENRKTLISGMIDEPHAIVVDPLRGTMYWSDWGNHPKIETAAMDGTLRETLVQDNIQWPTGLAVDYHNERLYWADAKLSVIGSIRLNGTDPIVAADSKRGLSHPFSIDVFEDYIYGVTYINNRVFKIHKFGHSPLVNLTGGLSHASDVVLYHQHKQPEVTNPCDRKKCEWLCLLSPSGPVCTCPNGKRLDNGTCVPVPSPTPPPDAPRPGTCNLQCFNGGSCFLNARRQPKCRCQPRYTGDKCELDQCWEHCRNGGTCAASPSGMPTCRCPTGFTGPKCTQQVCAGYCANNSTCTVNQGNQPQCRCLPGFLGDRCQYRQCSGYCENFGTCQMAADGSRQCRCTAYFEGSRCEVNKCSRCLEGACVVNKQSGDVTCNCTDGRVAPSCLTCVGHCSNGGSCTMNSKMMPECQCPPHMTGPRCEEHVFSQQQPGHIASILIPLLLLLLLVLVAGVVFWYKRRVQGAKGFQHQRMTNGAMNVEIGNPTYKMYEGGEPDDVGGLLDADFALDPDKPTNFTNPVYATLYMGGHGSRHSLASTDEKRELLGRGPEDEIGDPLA

## HSP70/CMVpp65(495-503)-peptide complex (from UniProt P0DMV8 1-641)
  reduction of proliferation of CD8+ T cells (CFSE dilution, 4 days) in PBMCs stimulated with 10 μg/ml HSP70/CMV-PC after 1 h pulse with 500 μg/ml α2-macroglobulin (A2M), the natural ligand of CD91: 86.9%
